PMC2700855 (Proteins, 2009)

T1: RFXAP (UniProt O00287 1-272)
T1 sequence (looked up): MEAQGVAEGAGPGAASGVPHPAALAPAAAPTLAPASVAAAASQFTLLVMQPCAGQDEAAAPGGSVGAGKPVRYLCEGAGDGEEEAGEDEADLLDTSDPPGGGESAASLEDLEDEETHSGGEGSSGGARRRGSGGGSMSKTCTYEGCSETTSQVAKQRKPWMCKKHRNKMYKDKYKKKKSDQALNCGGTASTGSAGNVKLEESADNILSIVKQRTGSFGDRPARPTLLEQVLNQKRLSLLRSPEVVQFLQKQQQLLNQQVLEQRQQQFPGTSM

B1: RFX5(88-330) (domain or fragment, UniProt P48382 88-330, looked up)
chain: EYMYAYRWIRNHLEEHTDTCLPKQSVYDAYRKYCESLACCRPLSTANFGKIIREIFPDIKARRLGGRGQSKYCYSGIRRKTLVSMPPLPGLDLKGSESPEMGPEVTPAPRDELVEAACALTCDWAERILKRSFSSIVEVARFLLQQHLISARSAHAHVLKAMGLAEEDEHAPRERSSKPKNGLENPEGGAHKKPERLAQPPKDLEARTGAGPLARGERKKSVVESSAPGANNLQVNALVARLP
B2: RFXB (natural protein, UniProt O14593 1-260, looked up)
chain: MELTQPAEDLIQTQQTPASELGDPEDPGEEAADGSDTVVLSLFPCTPEPVNPEPDASVSSPQAGSSLKHSTTLTNRQRGNEVSALPATLDSLSIHQLAAQGELDQLKEHLRKGDNLVNKPDERGFTPLIWASAFGEIETVRFLLEWGADPHILAKERESALSLASTGGYTDIVGLLLERDVDINIYDWNGGTPLLYAVRGNHVKCVEALLARGADLTTEADSGYTPMDLAVALGYRKVQQVIENHILKLFQSNLVPADPE
B3: RFX5(25-90) (domain or fragment, UniProt P48382 25-90, looked up)
chain: GEPTTLLQRLRGTISKAVQNKVEGILQDVQKFSDNDKLYLYLQLPSGPTTGDKSSEPSTLSNEEYM
B4: RFXB(88-260) (domain or fragment, UniProt O14593 88-260, looked up)
chain: TLDSLSIHQLAAQGELDQLKEHLRKGDNLVNKPDERGFTPLIWASAFGEIETVRFLLEWGADPHILAKERESALSLASTGGYTDIVGLLLERDVDINIYDWNGGTPLLYAVRGNHVKCVEALLARGADLTTEADSGYTPMDLAVALGYRKVQQVIENHILKLFQSNLVPADPE
B5: RFX5(1-90) (domain or fragment, UniProt P48382 1-90, looked up)
chain: MAEDEPDAKSPKTGGRAPPGGAEAGEPTTLLQRLRGTISKAVQNKVEGILQDVQKFSDNDKLYLYLQLPSGPTTGDKSSEPSTLSNEEYM
B6: RFXAP(215-272,F217Y) (domain or fragment, UniProt O00287 215-272, looked up)
chain: GSYGDRPARPTLLEQVLNQKRLSLLRSPEVVQFLQKQQQLLNQQVLEQRQQQFPGTSM
B7: RFX5(187-265) (domain or fragment, UniProt P48382 187-265, looked up)
chain: EMGPEVTPAPRDELVEAACALTCDWAERILKRSFSSIVEVARFLLQQHLISARSAHAHVLKAMGLAEEDEHAPRERSSK
B8: RFX5(1-330) (domain or fragment, UniProt P48382 1-330, looked up)
chain: MAEDEPDAKSPKTGGRAPPGGAEAGEPTTLLQRLRGTISKAVQNKVEGILQDVQKFSDNDKLYLYLQLPSGPTTGDKSSEPSTLSNEEYMYAYRWIRNHLEEHTDTCLPKQSVYDAYRKYCESLACCRPLSTANFGKIIREIFPDIKARRLGGRGQSKYCYSGIRRKTLVSMPPLPGLDLKGSESPEMGPEVTPAPRDELVEAACALTCDWAERILKRSFSSIVEVARFLLQQHLISARSAHAHVLKAMGLAEEDEHAPRERSSKPKNGLENPEGGAHKKPERLAQPPKDLEARTGAGPLARGERKKSVVESSAPGANNLQVNALVARLP

What was measured:
RFXB = biological target: B2; assay: SEC
RFX5(1-330) = biological target: B8; assay: SEC
RFXAP = biological target: T1, RFXAP; assay: SEC
cross-linking [1] = biological target: the molecule itself; assay: cross-linking
cross-linking [2] = biological target: the molecule itself; assay: cross-linking; remark: listed apart in the source
RFXAP(215-272,F217Y) = biological target: B6; assay: SEC-MALS
[3] = biological target: RFX5(25-90)2•RFXAP(215-272) complex (UniProt P48382); assay: SEC-MALS; conditions: scale: RFXB(88-260) per RFX5(25-90)2•RFXAP(215-272)
RFX5(88-330) = biological target: B1; assay: SEC
[4] = biological target: RFX5(25-90)2•RFXAP(215-272) complex (UniProt P48382); assay: ITC
RFXB(88-260) = biological target: B4; assay: SEC-MALS
RFX5(25-90) = biological target: B3; assay: SEC
SEC-MALS = biological target: the molecule itself; assay: SEC-MALS
SEC = biological target: the molecule itself; assay: SEC

Binder: B1
- binding result (RFXB): binds

Binder: B2
- binding result (RFX5(1-330)): binds
- binding result (RFXAP): binds

Binder: B3
- stoichiometry N (cross-linking [1]): 4
- stoichiometry N (cross-linking [2]): 2
- stoichiometry N (RFXAP(215-272,F217Y)): 2 RFX5(25-90) per RFXAP(215-272)

Binder: B4
- stoichiometry N [3]: 1
- binding result (RFX5(88-330)): binds
- Kd [4]: 75.5 nM
- stoichiometry N [4]: 1.02

Binder: B5
- binding result (RFXAP): binds

Binder: B6
- binding result (RFXB(88-260)): binds
- binding result (RFX5(25-90)): binds

Binder: B7
- stoichiometry N (SEC-MALS): 2

Binder: B8
- stoichiometry N (SEC): 2
